Test results reported in US20250347696A1, “SELF-ACTIVATING FÖRSTER RESONANCE ENERGY TRANSFER (saFRET) BIOSENSORS AND METHODS FOR MAKING AND USING THEM” (The Regents of the University of California, priority 2021, published 2025).

Experiments:
[1] = target: improved ZAP70 FRET biosensor with substrate … (SEQ ID NO:113), kinase domain removed
[2] = target: parental (WT) ZAP70 FRET biosensor with LAT Y191 substrate … (SEQ ID NO:107), kinase domain removed; test: cell-based or functional assay
[3] = target: improved ZAP70 FRET biosensor with substrate … (SEQ ID NO:113), kinase domain removed; test: cell-based or functional assay

B1: ZAP70 kinase (Zeta-chain-associated protein kinase 70), endogenous in Jurkat T cells (protein)
chain: MPDPAAHLPFFYGSISRAEAEEHLKLAGMADGLFLLRQCLRSLGGYVLSLVHDVRFHHFPIERQLNGTYAIAGGKAHCGPAELCEFYSRDPDGLPCNLRKPCNRPSGLEPQPGVFDCLRDAMVRDYVRQTWKLEGEALEQAIISQAPQVEKLIATTAHERMPWYHSSLTREEAERKLYSGAQTDGKFLLRPRKEQGTYALSLIYGKTVYHYLISQDKAGKYCIPEGTKFDTLWQLVEYLKLKADGLIYCLKEACPNSSASNASGAAAPTLPAHPSTLTHPQRRIDTLNSDGYTPEPARITSPDKPRPMPMDTSVYESPYSDPEELKDKKLFLKRDNLLIADIELGCGNFGSVRQGVYRMRKKQIDVAIKVLKQGTEKADTEEMMREAQIMHQLDNPYIVRLIGVCQAEALMLVMEMAGGGPLHKFLVGKREEIPVSNVAELLHQVSMGMKYLEEKNFVHRDLAARNVLLVNRHYAKISDFGLSKALGADDSYYTARSAGKWPLKWYAPECINFRKFSSRSDVWSYGVTMWEALSYGQKPYKKMKGPEVMAFIEQGKRMECPPECPPELYALMSDCWIYKWEDRPDFLTVEQRMRACYYSLASKVEGPPGSTQKAEAACA
- increase in sensitivity compared to the parental template (SREYVNVSGEL) [1]: > 4 fold
- ECFP/FRET ratio change (sensitivity) of the biosensor in Jurkat T cells upon CD3/CD28-antibody stimulation [2]: 5.8%
- ECFP/FRET ratio change (sensitivity) of the biosensor in Jurkat T cells upon CD3/CD28-antibody stimulation [3]: 25%
